In patent US20160130569, “A LAGLIDADG HOMING ENDONUCLEASE CLEAVING THE T CELL RECEPTOR ALPHA GENE AND USES THEREOF” (CELLECTIS, published 2016) one finds Kd data, which are given here for 2 molecules.

Data set [1] deals with T1, TCRA_S02_2E5 (Ophiostoma novo-ulmi (engineered)).
T1 chain: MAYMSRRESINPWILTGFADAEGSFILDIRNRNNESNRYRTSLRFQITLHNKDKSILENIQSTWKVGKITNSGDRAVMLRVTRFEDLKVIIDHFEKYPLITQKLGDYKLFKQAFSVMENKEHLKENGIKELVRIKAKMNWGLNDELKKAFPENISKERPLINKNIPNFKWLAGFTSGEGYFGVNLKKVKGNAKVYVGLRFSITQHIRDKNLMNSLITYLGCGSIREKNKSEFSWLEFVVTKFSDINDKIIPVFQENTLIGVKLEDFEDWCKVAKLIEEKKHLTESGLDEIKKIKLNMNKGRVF
In words: flow; yeast surface display titration; Example 3 text names the variant as TCRA_S02_2E5_RD1_08. To be noted: label: fluorescent dye (Alexa Fluor 647) in yeast display assays. How it is done:
(§1) Samples of yeast displaying each LHE variant were independently incubated with increasing concentrations of fluorescent dye-labeled synthetic DNA substrates (y-axis). An antibody to a C-terminal epitope was also included (x-axis) such that DNA binding activity could be normalized to the amount of LHE protein expressed on the yeast surface, creating the co-linear pattern, with higher signal in the y-axis per x-axis signal where affinity is greater.
The LHE containing the engineered DNA recognition interfaces for the TCRA_S02 (SEQ ID NO: 3) target was tested for affinity, specificity, and toxicity characteristics. Affinity was tested by independently incubating yeast displaying the TCRA_S02_2E5_RD1_08 variant, (SEQ ID NO: 7, encoding SEQ ID NO: 8) with DNA substrates containing its target sequences at various concentrations. See FIG. 6 showing the affinity properties of this variant relative to the wild-type I-Onul protein. […] Toxicity was analyzed by in vitro transcribing each LHE into mRNA and transfecting primary human T cells by electroporation, followed by flow cytometry analysis of the survival of the cells relative to transfection with a control mRNA encoding a blue fluorescent protein (BFP). […]

The target of data set [2] is T2, I-OnuI wild type (OnuWT) (Ophiostoma novo-ulmi).
T2 chain: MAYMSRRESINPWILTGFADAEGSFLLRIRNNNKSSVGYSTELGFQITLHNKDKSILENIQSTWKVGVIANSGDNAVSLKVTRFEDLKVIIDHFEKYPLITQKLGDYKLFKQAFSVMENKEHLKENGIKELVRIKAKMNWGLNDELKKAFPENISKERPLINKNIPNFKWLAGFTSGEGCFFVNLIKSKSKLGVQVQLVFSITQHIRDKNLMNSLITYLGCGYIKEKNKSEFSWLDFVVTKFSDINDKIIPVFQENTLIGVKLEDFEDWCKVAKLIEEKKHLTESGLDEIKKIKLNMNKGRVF
The data set can be described thus: flow; yeast surface display titration. As to conditions: label: Alexa Fluor 647. How it is done: as §1
The LHE containing the engineered DNA recognition interfaces for the TCRA_S02 (SEQ ID NO: 3) target was tested for affinity, specificity, and toxicity characteristics. Affinity was tested by independently incubating yeast displaying the TCRA_S02_2E5_RD1_08 variant, (SEQ ID NO: 7, encoding SEQ ID NO: 8) with DNA substrates containing its target sequences at various concentrations. See FIG. 6 showing the affinity properties of this variant relative to the wild-type I-Onul protein. […] Toxicity was analyzed by in vitro transcribing each LHE into mRNA and transfecting primary human T cells by electroporation, followed by flow cytometry analysis of the survival of the cells relative to transfection with a control mRNA encoding a blue fluorescent protein (BFP).

B1: TCRA_S02 (dsDNA)
DNA 1: TGTCTGCCTATTCACCGATTTT
DNA 2: AAAATCGGTGAATAGGCAGACA
In general, Kd refers to the concentration at which binding is half-saturated. A high value points to weaker binding. The molecule B1 yielded a Kd in data set [1] of about 0.09 nM.

B2: I-OnuI native target (dsDNA)
DNA 1: TTTCCACTTATTCAACCTTTTA
DNA 2: TAAAAGGTTGAATAAGTGGAAA
As to B2, in data set [2], the Kd is about 0.08 nM.
